One substance from patent publication US20230080865A1 can be followed below.

Experiment [1] deals with AEG::SOE2 chimeric recombinant protein. Kind of experiment: ELISA, AEG::SOE2 coated on wells; reagent 1:1000.
Experiment [2] concerns the target AEG::SOE3 chimeric recombinant protein. As to the kind of experiment: ELISA, AEG::SOE3 coated on wells; reagent 1:1000.

With “secondary peroxidase-conjugated goat anti-mouse IgG (antibody)”, the ELISA signal worked out at 0.11 in experiment [1] and 0.111 in experiment [2].
